Laboratory results reported in patent US20240384250A1, “FIBROBLAST GROWTH FACTOR 23 MODULATING COMPOUNDS” (THE UAB RESEARCH FOUNDATION, priority 2021, published 2024).
Entries after “also recorded” stand apart in the source; their conditions may differ. Each block holds one molecule with its values, some of them ahead of it.

Tested on: FGF23 and FGFR1c
Assay: sKL detection assay (FGF23 coated, Fc-FGFR1c detection)
Type: binding
Settings: for binding in the sKL detection assay, total cell lysates: lysates of stably transfected HEK293T cells; for binding in the sKL detection assay: commercial preparations compared with the sKL protein
Method: Commercially available ELISA plates (Maxisorp) are coated with 5 μg/ml of recombinant FGF23 protein (R&D Systems) and unspecific binding sites are blocked with BSA/Tween20. Wells are incubated with sKL in solution (which can be plasma, serum or cell culture supernatants) for one hour, washed and incubated for one hour with 750 ng/ml of recombinant FGFR1α(IIIc)-Fc (R&D Systems), which is a chimeric protein consisting of the FGFR1 ectodomain and the Fc region of a human IgG. FGFR1 only binds to FGF23 in the presence of sKL, and the formation of this trimeric sandwich complex is then measured by detecting the presence of the Fc domain that is coupled to FGFR1. To do so, wells are washed and incubated with 400 ng/ml of anti-human IgG conjugated to horseradish peroxidase (HRP; Promega). Wells are washed and incubated with HRP substrate. After development for about 30 minutes, reactions are analyzed on a standard plate reader via absorptions at […]. Incubations with recombinant sKL dissolved in PBS at defined concentrations serve as standards that are used as reference values to determine sKL concentrations in the studied human samples. […]
HEK293 cells were plated in 10 cm dishes supplemented with 10% FBS (26140079, Gibco) and I× Pen/Strep (15140122, Gibco). Cells were transfected with appropriate klotho or green fluorescent protein cDNA constructs. After 2 days, clones were selected by using 1 μg/ml of puromycin (A1113803, Gibco). Cells were then split and plated in 10 cm dishes in DMEM supplemented with FBS and puromycin. After 48 hours, cells were lysed in 1 ml of RIPA buffer with the addition of a protease inhibitor (11873580001, Roche) for 30 minutes. The mixture was then centrifuged at 20,000 g for 1 hour to remove all cell debris. Activity assay was run as above in the sKL halflife study. Instead of serum, 20 μl of the indicated cell lysate was used and combined with 80 μl of activity assay buffer.

B1: sBKL: soluble β-klotho in total lysates of stably transfected HEK293T cells (protein)
chain: MKTGCAAGSPGNEWIFFSSDERNTRSRKTMSNRALQRSAVLSAFVLLRAVTGFSGDGKAIWDKKQYVSPVNPSQLFLYDTFPKNFSWGVGTGAFQVEGSWKTDGRGPSIWDRYVYSHLRGVNGTDRSTDSYIFLEKDLLALDFLGVSFYQFSISWPRLFPNGTVAAVNAQGLRYYRALLDSLVLRNIEPIVTLYHWDLPLTLQEEYGGWKNATMIDLFNDYATYCFQTFGDRVKYWITIHNPYLVAWHGFGTGMHAPGEKGNLTAVYTVGHNLIKAHSKVWHNYDKNFRPHQKGWLSITLGSHWIEPNRTDNMEDVINCQHSMSSVLGWFANPIHGDGDYPEFMKTGAMIPEFSEAEKEEVRGTADFFAFSFGPNNFRPSNTVVKMGQNVSLNLRQVLNWIKLEYDDPQILISENGWFTDSYIKTEDTTAIYMMKNFLNQVLQAIKFDEIRVFGYTAWTLLDGFEWQDAYTTRRGLFYVDFNSEQKERKPKSSAHYYKQIIQDNGFPLKESTPDMKGRFPCDFSWGVTESVLKPEFTVSSPQFTDPHLYVWNVTGNRLLYRVEGVRLKTRPSQCTDYVSIKKRVEMLAKMKVTHYQFALDWTSILPTGNLSKVNRQVLRYYRCVVSEGLKLGVFPMVTLYHPTHSHLGLPLPLLSSGGWLNMNTAKAFQDYAELCFRELGDLVKLWITINEPNRLSDMYNRTSNDTYRAAHNLMIAHAQVWHLYDRQYRPVQHGAVSLSLHCDWAEPANPFVDSHWKAAERFLQFEIAWFADPLFKTGDYPSVMKEYIASKNQRGLSSSVLPRFTAKESRLVKGTVDFYALNHFTTRFVIHKQLNTNRSVADRDVQFLQDITRLSSPSRLAVTPWGVRKLLAWIRRNYRDRDIYITANGIDDLALEDDQIRKYYLEKYVQEALKAYLIDKVKIKGYYAFKLTEEKSKPRFGFFTSDFRAKSSVQFYSKLISSSGLPAENRSPACGQPAEDTDCTICSFLVEKKP
modifications: left off: small tags and cut ends
notes: soluble β-klotho in total lysates of stably transfected HEK293T cells
binding in the sKL detection assay, total cell lysates: no measurable binding activity

B2: KL: full-length klotho in total lysates of stably transfected HEK293T cells (protein, UniProt Q9UEF7 1-1012, looked up)
chain: MPASAPPRRPRPPPPSLSLLLVLLGLGGRRLRAEPGDGAQTWARFSRPPAPEAAGLFQGTFPDGFLWAVGSAAYQTEGGWQQHGKGASIWDTFTHHPLAPPGDSRNASLPLGAPSPLQPATGDVASDSYNNVFRDTEALRELGVTHYRFSISWARVLPNGSAGVPNREGLRYYRRLLERLRELGVQPVVTLYHWDLPQRLQDAYGGWANRALADHFRDYAELCFRHFGGQVKYWITIDNPYVVAWHGYATGRLAPGIRGSPRLGYLVAHNLLLAHAKVWHLYNTSFRPTQGGQVSIALSSHWINPRRMTDHSIKECQKSLDFVLGWFAKPVFIDGDYPESMKNNLSSILPDFTESEKKFIKGTADFFALCFGPTLSFQLLDPHMKFRQLESPNLRQLLSWIDLEFNHPQIFIVENGWFVSGTTKRDDAKYMYYLKKFIMETLKAIKLDGVDVIGYTAWSLMDGFEWHRGYSIRRGLFYVDFLSQDKMLLPKSSALFYQKLIEKNGFPPLPENQPLEGTFPCDFAWGVVDNYIQVDTTLSQFTDLNVYLWDVHHSKRLIKVDGVVTKKRKSYCVDFAAIQPQIALLQEMHVTHFRFSLDWALILPLGNQSQVNHTILQYYRCMASELVRVNITPVVALWQPMAPNQGLPRLLARQGAWENPYTALAFAEYARLCFQELGHHVKLWITMNEPYTRNMTYSAGHNLLKAHALAWHVYNEKFRHAQNGKISIALQADWIEPACPFSQKDKEVAERVLEFDIGWLAEPIFGSGDYPWVMRDWLNQRNNFLLPYFTEDEKKLIQGTFDFLALSHYTTILVDSEKEDPIKYNDYLEVQEMTDITWLNSPSQVAVVPWGLRKVLNWLKFKYGDLPMYIISNGIDDGLHAEDDQLRVYYMQNYINEALKAHILDGINLCGYFAYSFNDRTAPRFGLYRYAADQFEPKASMKHYRKIIDSNGFPGPETLERFCPEEFTVCTECSFFHTRKSLLAFIAFLFFASIISLSLIFYYSKKGRRSYK
modifications: full-length
notes: full-length klotho in total lysates of stably transfected HEK293T cells
binding in the sKL detection assay, total cell lysates: much weaker binding
binding in the sKL detection assay, total cell lysates (listed as full-length klotho): negative

binding in the sKL detection assay: significantly reduced binding
B3: Com.sKL: commercial preparation, mouse sKL from R&D Systems (1819KL050), aa 35-982 (protein)
chain: AEPGQGAQTWARFARAPAPEAAGLLHDTFPDGFLWAVGSAAYQTEGGWRQHGKGASIWDTFTHHSGAAPSDSPIVVAPSGAPSPPLSSTGDVASDSYNNVYRDTEGLRELGVTHYRFSISWARVLPNGTAGTPNREGLRYYRRLLERLRELGVQPVVTLYHWDLPQRLQDTYGGWANRALADHFRDYAELCFRHFGGQVKYWITIDNPYVVAWHGYATGRLAPGVRGSSRLGYLVAHNLLLAHAKVWHLYNTSFRPTQGGRVSIALSSHWINPRRMTDYNIRECQKSLDFVLGWFAKPIFIDGDYPESMKNNLSSLLPDFTESEKRLIRGTADFFALSFGPTLSFQLLDPNMKFRQLESPNLRQLLSWIDLEYNHPPIFIVENGWFVSGTTKRDDAKYMYYLKKFIMETLKAIRLDGVDVIGYTAWSLMDGFEWHRGYSIRRGLFYVDFLSQDKELLPKSSALFYQKLIEDNGFPPLPENQPLEGTFPCDFAWGVVDNYVQVDTTLSQFTDPNVYLWDVHHSKRLIKVDGVVAKKRKPYCVDFSAIRPQITLLREMRVTHFRFSLDWALILPLGNQTQVNHTVLHFYRCMISELVHANITPVVALWQPAAPHQGLPHALAKHGAWENPHTALAFADYANLCFKELGHWVNLWITMNEPNTRNMTYRAGHHLLRAHALAWHLYDDKFRAAQKGKISIALQADWIEPACPFSQNDKEVAERVLEFDIGWLAEPIFGSGDYPRVMRDWLNQKNNFLLPYFTEDEKKLVRGSFDFLAVSHYTTILVDWEKEDPMKYNDYLEVQEMTDITWLNSPSQVAVVPWGLRKVLNWLRFKYGDLPMYVTANGIDDDPHAEQDSLRIYYIKNYVNEALKAYVLDDINLCGYFAYSLSDRSAPKSGFYRYAANQFEPKPSMKHYRKIIDSNGFLGSGTLGRFCPEEYTVCTECGFFQTRK

B4: KL1: human klotho domain 1 (KL1) from PeproTech, aa 34-549 (protein)
chain: EPGDGAQTWARFSRPPAPEAAGLFQGTFPDGFLWAVGSAAYQTEGGWQQHGKGASIWDTFTHHPLAPPGDSRNASLPLGAPSPLQPATGDVASDSYNNVFRDTEALRELGVTHYRFSISWARVLPNGSAGVPNREGLRYYRRLLERLRELGVQPVVTLYHWDLPQRLQDAYGGWANRALADHFRDYAELCFRHFGGQVKYWITIDNPYVVAWHGYATGRLAPGIRGSPRLGYLVAHNLLLAHAKVWHLYNTSFRPTQGGQVSIALSSHWINPRRMTDHSIKECQKSLDFVLGWFAKPVFIDGDYPESMKNNLSSILPDFTESEKKFIKGTADFFALCFGPTLSFQLLDPHMKFRQLESPNLRQLLSWIDLEFNHPQIFIVENGWFVSGTTKRDDAKYMYYLKKFIMETLKAIKLDGVDVIGYTAWSLMDGFEWHRGYSIRRGLFYVDFLSQDKMLLPKSSALFYQKLIEKNGFPPLPENQPLEGTFPCDFAWGVVDNYIQVDTTLSQFTDLNVYLW
binding in the sKL detection assay: cannot mediate FGF23-FGFR1c binding; also recorded: did not show any bioactivity; also recorded: no binding

B5: BKL: full-length β-klotho in total lysates of stably transfected HEK293T cells (protein)
chain: MKTGCAAGSPGNEWIFFSSDERNTRSRKTMSNRALQRSAVLSAFVLLRAVTGFSGDGKAIWDKKQYVSPVNPSQLFLYDTFPKNFSWGVGTGAFQVEGSWKTDGRGPSIWDRYVYSHLRGVNGTDRSTDSYIFLEKDLLALDFLGVSFYQFSISWPRLFPNGTVAAVNAQGLRYYRALLDSLVLRNIEPIVTLYHWDLPLTLQEEYGGWKNATMIDLFNDYATYCFQTFGDRVKYWITIHNPYLVAWHGFGTGMHAPGEKGNLTAVYTVGHNLIKAHSKVWHNYDKNFRPHQKGWLSITLGSHWIEPNRTDNMEDVINCQHSMSSVLGWFANPIHGDGDYPEFMKTGAMIPEFSEAEKEEVRGTADFFAFSFGPNNFRPSNTVVKMGQNVSLNLRQVLNWIKLEYDDPQILISENGWFTDSYIKTEDTTAIYMMKNFLNQVLQAIKFDEIRVFGYTAWTLLDGFEWQDAYTTRRGLFYVDFNSEQKERKPKSSAHYYKQIIQDNGFPLKESTPDMKGRFPCDFSWGVTESVLKPEFTVSSPQFTDPHLYVWNVTGNRLLYRVEGVRLKTRPSQCTDYVSIKKRVEMLAKMKVTHYQFALDWTSILPTGNLSKVNRQVLRYYRCVVSEGLKLGVFPMVTLYHPTHSHLGLPLPLLSSGGWLNMNTAKAFQDYAELCFRELGDLVKLWITINEPNRLSDMYNRTSNDTYRAAHNLMIAHAQVWHLYDRQYRPVQHGAVSLSLHCDWAEPANPFVDSHWKAAERFLQFEIAWFADPLFKTGDYPSVMKEYIASKNQRGLSSSVLPRFTAKESRLVKGTVDFYALNHFTTRFVIHKQLNTNRSVADRDVQFLQDITRLSSPSRLAVTPWGVRKLLAWIRRNYRDRDIYITANGIDDLALEDDQIRKYYLEKYVQEALKAYLIDKVKIKGYYAFKLTEEKSKPRFGFFTSDFRAKSSVQFYSKLISSSGLPAENRSPACGQPAEDTDCTICSFLVEKKPLIFFGCCFISTLAVLLSITVFHHQKRRKFQKARNLQNIPLKKGHSRVFS
modifications: left off: small tags and cut ends
notes: full-length β-klotho in total lysates of stably transfected HEK293T cells
binding in the sKL detection assay, total cell lysates: no measurable binding activity
